Measurements published in patent US20230235013A1 (MABSOLVE, published 2023).

Assays:
[1] = target: T1, Sheep Fc-CD52 fusion protein (Absolute Antibody Cat. No. PR00205) (human, UniProt P31358 25-36); experiment: ELISA, antigen coated, antibody 5 µg/mL
T1 construct: bought; also called CD52 antigen; human CD52; not shown: sheep Fc

[2] = target: T2, CD3D/CD3E heterodimer (Sino Biologicals Cat. No. CT038-H2508H) (human, UniProt P04234 22-105; P07766 23-126); experiment: ELISA, antigen coated, antibody 5 µg/mL
T2 construct: bought; also called CD3 antigen; human CD3

[3] = target: T2, CD3D/CD3E heterodimer (Sino Biologicals …); experiment: ELISA, antigen coated

Mean Absorbance [1]: 1.53 absorbance | Mean Absorbance [2]: 0.009 absorbance | binding result [3]: no binding (tested: 5 µg/mL)
B1: anti-CD52 (alemtuzumab variable regions) human IgG1 wild type reference (antibody)
heavy: not shown
light: not shown
notes: also called 4-1; wild-type CD52 antibody
